# Assay results reported in publication PMC5175356.
# Read-outs that look alike come from different tables or passages of the source.
# T1: AtPOT1b OB1 (Arabidopsis thaliana, UniProt Q6NKX5 1-159)
# T1 sequence: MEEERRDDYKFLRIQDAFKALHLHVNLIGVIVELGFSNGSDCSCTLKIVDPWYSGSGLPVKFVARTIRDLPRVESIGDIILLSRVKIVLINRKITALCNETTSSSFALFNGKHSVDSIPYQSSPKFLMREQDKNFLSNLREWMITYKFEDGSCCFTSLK
# T2: AtPOT1a OB1 F65A (Arabidopsis thaliana, UniProt Q56Y52 1-158, F65A)
# T2 sequence: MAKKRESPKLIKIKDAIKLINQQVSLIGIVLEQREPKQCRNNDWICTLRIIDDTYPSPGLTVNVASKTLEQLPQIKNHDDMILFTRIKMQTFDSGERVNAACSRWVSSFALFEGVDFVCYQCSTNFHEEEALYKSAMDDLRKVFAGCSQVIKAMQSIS
# T3: AtPOT1b OB1 V63F (Arabidopsis thaliana, UniProt Q6NKX5 1-159, V63F)
# T3 sequence: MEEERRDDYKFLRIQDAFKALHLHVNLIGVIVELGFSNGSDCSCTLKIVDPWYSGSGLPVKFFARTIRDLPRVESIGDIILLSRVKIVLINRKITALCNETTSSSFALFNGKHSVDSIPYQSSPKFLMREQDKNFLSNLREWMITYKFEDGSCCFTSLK
# T4: AtPOT1a OB1 (Arabidopsis thaliana, UniProt Q56Y52 1-158)
# T4 sequence: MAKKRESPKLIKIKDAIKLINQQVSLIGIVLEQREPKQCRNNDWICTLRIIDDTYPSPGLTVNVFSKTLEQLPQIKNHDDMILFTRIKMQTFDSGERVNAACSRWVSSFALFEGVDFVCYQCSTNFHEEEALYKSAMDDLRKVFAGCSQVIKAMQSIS
# Assays:
# [1] = biological target: T1, AtPOT1b OB1; assay: EMSA
# [2] = biological target: T2, AtPOT1a OB1 F65A; assay: EMSA
# [3] = biological target: T3, AtPOT1b OB1 V63F; assay: EMSA
# [4] = biological target: T4, AtPOT1a OB1; assay: EMSA
# [5] = biological target: T4, AtPOT1a OB1; assay: EMSA; remark: listed apart in the source
# [6] = biological target: T4, AtPOT1a OB1; assay: competition
# [7] = biological target: T4, AtPOT1a OB1; assay: EMSA; remark: listed apart in the source
# [8] = biological target: T4, AtPOT1a OB1; assay: EMSA; remark: listed apart in the source
binder,measurement,setting,value
TTTAGGGTTTAGGGTTTAGGGTTTAGGGTTTAGGG (ssDNA) [(TTTAGGG)5],binding result,[1],no binding
same,binding result,[2],no binding
same,binding result,[3],binds
same,Kd,[4],230 ± 30 nM
TTTAGGG (ssDNA),binding result,[5],no binding
TTAATTAACCCGGGGATCCGGCTTGATCAACGAATGATCC (ssDNA) [NS DNA],binding signal,[6],10 % reduction of binding
TAGGGTTTAGG (ssDNA) [minimal binding site 11-mer],binding result,[7],binds
UUUAGGGUUUAGGGUUUAGGGUUUAGGGUUUAGGG (ssRNA) [(UUUAGGG)5],binding signal,[6],10 % reduction of binding
TTAGGGTTTAGG (ssDNA) [12-mer telomere],binding result,[8],binds
TTTAGGGTTTAGGG (ssDNA) [(TTTAGGG)2],Kd,[4],~1000 nM
